According to patent publication US20080274959A1, “Actinomadura Chromoprotein, Apoprotein and Gene Cluster” (Wyeth, priority 2004, published 2008):

Experiments:
PC3 = assay: Potency against human tumor cell lines: PC3; type: cell-based; settings: PC3, Prostate
LOX = assay: Potency against human tumor cell lines: LOX; type: cell-based; settings: Melanoma
DLD1 = assay: Potency against human tumor cell lines: DLD1; type: cell-based; settings: DLD1, Colon
Histone H1 = assay: Digestion of histone H1, SDS-PAGE; type: biochemical
Procedure: Histone H1 was incubated with various concentrations of the chromoprotein in 50 mM Tris-Cl, pH 7.5 overnight at 37° C. (FIG. 20) Digestions of histone were assessed by SDS-polyacrylamide gel electrophoresis (SDS-PAGE), followed by staining of the gel with GelCode Blue (Pierce Biotechnology, Inc, Rockford, Ill.).

histone H1 in HeLa cells = assay: Digestion of histone H1 in HeLa cells, immunoblot; type: cell-based; settings: overnight at 37° C., anti-histone H1 immunoblot
Procedure: To study whether the digestion of histones by the chromoprotein occurs in intact cells, HeLa cells were incubated with compounds overnight at 37° C. Cell lysates were analysed by SDS-PAGE and protein immunoblotting using anti-histone H1 antibodies (Santa Cruz Biotechnologies). […] This activity can contribute to antitumor effects by digesting histones in chromatin, making the DNA more accessible for cleavage. This appears to be a unique activity of the chromoprotein enediynes.

HCT116 cells = assay: Uptake of FITC-tagged protein, fluorescent microscopy / flow cytometry; type: cell-based, human; settings: FITC-labeled
Description: To determine the mechanism by which the chromoprotein enters cells and exerts its biological activity, the chromoprotein was labeled with a fluorescent tag (FITC) using EZ-Label fluorescent labeling kit (Pierce Biotechnology), according to the manufacturer's recommendation. […] Uptake of labeled material by HCT116 colon carcinoma cells was studied by fluorescent microscopy.
To determine whether an intact complex of chromophore and apoprotein is required for cellular and nuclear entry, the chromoprotein and apoprotein were labeled with FITC. Uptake of labeled material was studied by fluorescent microscopy.
To determine whether the entry of chromoprotein into cells is mediated by a saturable (e.g. cell surface receptor-dependent) process, HCT116 cells were incubated with FITC-labeled chromoprotein (FIG. 28, right panel) or apoprotein (FIG. 28, left panel) in the absence or presence of 10-fold excess of unlabeled reagent (unlabelled chromoprotein or apoprotein, respectively). Cells were analysed by fluorescent microscopy (left) or flow cytometry (right). […] Numbers in the histograms are mean channel numbers (FITC fluorescence).
Other means by which a protein complex can enter cells is pinocytosis, where caveolae in the surface of the cell pinch off to form pinosomes that are free within the cytoplasm of the cell. Since pinocytosis is an energy-dependent process that requires a functional tubulin cytoskeletal network, we examined the effect of sodium azide, an energy uncoupling agent and nocodazole, an agent which disrupts the tubulin cytoskeleton on cellular uptake. HCT116 cells were treated with FITC-labeled apoprotein in the absence or presence of sodium azide or nocodazole.

MDA-MB-361 = assay: Potency against human tumor cell lines: MDA-MB-361; type: cell-based; settings: MDA-MB-361, Breast

B1: Actinomadura sp. 21G792 chromoprotein: non-covalent complex of an apoprotein and a chromophore comprising a nine-membered enediyne, produced by Actinomadura sp. 21G792 (NRRL 30778) (protein)
chain: DTVTVNYDCVGYPSDIAVTIDAPATAGVGDTATFEVSSVVTTGAPQDLPAGEVVTDMAIVVGGAQSGTITASGLTNEATPAGQPVNMVGGEAQITFTSAGSVTFTPSTTTQVDNGAQCTVVGEAPVGATTVVS
IC50 (PC3): 22000 ng/mL | IC50 (LOX): 1 ng/mL | IC50 (DLD1): 8000 ng/mL | digestion of histone H1 on addition of DNA (Histone H1): inhibited by addition of DNA | digestion of histones on addition of free radical scavengers (Histone H1; 30 mM glutathione or N-acetyl cysteine): inhibited by the addition of free radical scavengers | digestion of histone H1 (Histone H1; 50 mM Tris-Cl, pH 7.5 overnight at 37° C.): digestion of Histone H1 | digestion of histones on addition of protease inhibitors (Histone H1; PMSF, Leupeptin, Aprotinin, Pepstatin A): not by protease inhibitors | histone H1 in cells after incubation (histone H1 in HeLa cells): reduced histone H1 in cells | biological activity after FITC labeling (HCT116 cells): No loss of biological activity | uptake, apoprotein compared with chromoprotein (HCT116 cells): similar | cellular localisation of label (HCT116 cells; incubation 3-6 hours, fluorescent microscopy): Most of the label appeared in the cytoplasm | competition of uptake by 10-fold excess of unlabeled reagent (HCT116 cells; microscopy or flow cytometry): No competition of label | IC50 (MDA-MB-361): 5 ng/mL
